Reference: article PMC8229645

Tests used:
[1] = molecular target: Human astrovirus 2 capsid spike (Spike 2) (human astrovirus serotype 2); experiment: SEC
[2] = molecular target: Human astrovirus 6 capsid spike (Spike 6) (human astrovirus serotype 6); experiment: SEC

Substance | stoichiometry N [1] | stoichiometry N [2]
Human astrovirus 2 capsid spike (Spike 2) (domain or fragment) | 2 | –
Human astrovirus 6 capsid spike (Spike 6) (domain or fragment) | – | 2
